Stoichiometry N data for two substances are collected here from article doi:10.1101/484048.

Assay [1] concerns the target human methylmalonyl-CoA epimerase, wild type (human) (UniProt Q96PE7).
Assay [2] shares this target. The experiment in a line: crystal structure.
Assay [3] has as its target human methylmalonyl-CoA epimerase p.Arg143Cys variant (human) (UniProt Q96PE7). The experiment in a line: crystal structure.

Like-named read-outs stand apart in the source and are kept apart here.

On to “human methylmalonyl-CoA epimerase, wild type (from UniProt Q96PE7 45-176) (enzyme)”, for which the stoichiometry N in assay [1] and in assay [2] was 2 throughout.

Consider “human methylmalonyl-CoA epimerase p.Arg143Cys variant (from UniProt Q96PE7 45-176) (enzyme)”, for which the stoichiometry N (commonly a count of units in the complex or per binding partner) in assay [3] was found to be 2.
